For data set [1], the target named is T1, M2-1 (Respiratory syncytial virus, UniProt P04545 1-194).
T1 sequence: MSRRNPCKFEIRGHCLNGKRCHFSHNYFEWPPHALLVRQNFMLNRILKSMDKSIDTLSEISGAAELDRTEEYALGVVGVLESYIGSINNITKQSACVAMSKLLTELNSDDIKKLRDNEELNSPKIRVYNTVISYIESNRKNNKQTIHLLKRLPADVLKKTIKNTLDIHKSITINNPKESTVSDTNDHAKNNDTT
In words: EMSA (native agarose gel, Amido black protein stain); 10 uM protein, 15 uM RNA; no band shift (none or too weak to detect); EMSA: 20 mM Tris pH 8, 150 mM NaCl, 30 min room temperature, 1% native agarose in 1X Tris-glycine; PhaseScan: 20 mM Tris-HCl pH 7.4, 150 mM NaCl, no crowding agent. As to conditions: protein: recombinant; tags: GST fusion vector pGEX-M2-1; chain copies: 4; single strand. For orientation: A gel shift assay detects complexes by their altered migration in electrophoresis.

Data set [2] addresses T2, RSV nucleoprotein N fused to mCherry (N-mCherry), N rings (respiratory syncytial virus (RSV), UniProt P03418 1-391).
T2 construct: Nucleoprotein N of respiratory syncytial virus, 391 residues; from the plasmid pET-mCherry-N; The results call the sample of the MDS experiment 'N rings' (N-RNA oligomers holding bacterial RNA); The plasmid is named pET-mCherry-N, the methods of MDS say 'N-mCherry', so the end of mCherry is open; source: E. coli BL21 (DE3), purified (gel filtration)
T2 sequence (looked up): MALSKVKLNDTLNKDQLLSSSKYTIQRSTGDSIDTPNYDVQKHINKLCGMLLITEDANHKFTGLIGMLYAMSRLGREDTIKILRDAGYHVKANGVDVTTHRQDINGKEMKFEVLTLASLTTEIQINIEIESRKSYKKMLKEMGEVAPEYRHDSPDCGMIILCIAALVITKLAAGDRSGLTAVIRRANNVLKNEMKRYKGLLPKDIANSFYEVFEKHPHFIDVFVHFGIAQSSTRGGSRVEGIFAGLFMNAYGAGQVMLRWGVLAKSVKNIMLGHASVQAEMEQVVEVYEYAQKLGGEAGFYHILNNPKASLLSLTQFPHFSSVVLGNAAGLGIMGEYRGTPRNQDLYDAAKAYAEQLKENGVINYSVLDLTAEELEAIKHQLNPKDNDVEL
Briefly: microfluidic diffusional sizing (MDS); 0.5 μM N-mCherry with increasing concentrations of unlabeled P or P domains, incubated 30 min in the dark; 150 mM NaCl, 20 mM tris pH 7.4; hydrodynamic radius of N in triplicate, Fluidity One-M. As to conditions: both partners purified.

Data set [3] concerns the target T1, M2-1. In words: EMSA (native agarose gel, Amido black protein stain); 10 uM protein, 15 uM RNA; clear band shift; EMSA: 20 mM Tris pH 8, 150 mM NaCl, 30 min room temperature, 1% native agarose in 1X Tris-glycine; PhaseScan: 20 mM Tris-HCl pH 7.4, 150 mM NaCl, no crowding agent. Conditions: protein: recombinant; tags: GST fusion vector pGEX-M2-1; chain copies: 4; single strand.

B1: 5' OH 7-mer RNA (ssRNA)
RNA: AGCGUAC
modifications: 5' OH
As for B1, the binding result in the data set with M2-1 [1] was “no binding”.

B2: RSV phosphoprotein P residues 127-241 (domain or fragment, respiratory syncytial virus (RSV), UniProt P03421 127-241, looked up)
chain: TNDNITARLDRIDEKLSEILGMLHTLVVASAGPTSARDGIRDAMIGLREEMIEKIRTEALMTNDRLEAMARLRNEESEKMAKDTSDEVSLNPTSEKLNNLLEGNDSDNDLSLEDF
notes: Holds the tetramerization domain POD (131 to 151); source: E. coli BL21 (DE3), purified (gel filtration)
For the molecule B2, binding in data set [2] was put at a Kd of 2.6 ± 0.9 µM.

B3: 5' cap 7-mer RNA (ssRNA)
RNA: AGCGUAC
modifications: 5' cap (7mGppp, 2'-O-methyl on first nucleotide as generally described); cap G not counted in strand
Turning to B3, the binding result with M2-1 [3] is given as “binds”.

For the origin of these results see publication PMC13134614, “In vitro liquid-liquid phase separation induced by respiratory syncytial virus proteins and RNA” (Science Advances, 2025).
